Assay results reported in article doi:10.1101/2025.07.16.665153.

Biological target: endogenous MpUVR8 of Marchantia polymorpha (Marchantia polymorpha (endogenous in Tak-1 gemmalings))
Assay: cross-linking

For “endogenous MpUVR8 of Marchantia polymorpha (natural protein)”, the stoichiometry N was 2.
